This is an account of results in patent publication US20180296696A1 (SANFORD BURNHAM PREBYS MEDICAL DISCOVERY INSTITUTE, published 2018).

No end group written: not given here.

Test [1] has as its target Hyaluronan and proteoglycan link protein 4 (mouse) (UniProt Q80WM4). The test can be described thus: peptide-affinity chromatography of PBI mouse brain lysate, elution with free CAQK, LC-MS/MS.
For test [2], the target named is Tenascin-R (mouse) (UniProt Q8BYI9). The description is as above.
Test [3] has as its target T1, Versican core protein (mouse, UniProt Q62059 24-3357, limits assumed).
T1 construct: Native chondroitin sulfate proteoglycan from brain lysate, identified by LC-MS/MS against the Mus musculus UniProt database; also called VCAN
Described as above.

Test [4] concerns the target Tenascin-R (mouse) (UniProt Q8BYI9). The test can be described thus: peptide-affinity chromatography of PBI mouse brain lysate, LC-MS/MS.
For test [5], the target named is T2, Hyaluronan and proteoglycan link protein 4 (mouse, UniProt Q80WM4 31-400).
T2 construct: Native protein from brain lysate, identified by LC-MS/MS; also called Hapln4; HAPLN4
T2 sequence (Q80WM4 31-400 limits assumed): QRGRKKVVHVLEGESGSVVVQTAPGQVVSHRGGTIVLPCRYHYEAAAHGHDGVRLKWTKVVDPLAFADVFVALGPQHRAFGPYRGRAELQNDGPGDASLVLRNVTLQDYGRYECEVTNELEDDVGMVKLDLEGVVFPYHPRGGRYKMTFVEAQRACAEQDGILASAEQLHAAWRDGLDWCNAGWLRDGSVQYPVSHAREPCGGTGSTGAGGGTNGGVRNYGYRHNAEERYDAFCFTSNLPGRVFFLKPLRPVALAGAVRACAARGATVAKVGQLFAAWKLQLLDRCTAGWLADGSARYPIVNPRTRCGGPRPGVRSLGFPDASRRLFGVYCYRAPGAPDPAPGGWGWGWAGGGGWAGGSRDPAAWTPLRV
The test can be described thus: peptide-affinity chromatography of PBI mouse brain lysate, LC-MS/MS (empty column denotes protein was not detected). Here is the method: (§1) Affinity Chromatography and Proteomics. For identifying CAQK binding proteins, mouse brains with brain injury were collected 6 hrs after injury. Using liquid nitrogen, the brains were crushed and ground into powder using a mortar and pestle. Next, brain tissue was lysed in PBS containing 200 mM n-octyl-beta-D-glucopyranoside and protease inhibitor cocktail (Roche) as described (Teesalu et al., PNAS 16157-16162 (2009)). The cleared lysate was loaded on to CAQK or control peptide (CGGK) coated Sulfolink-agarose beads (Pierce, Waltham, Mass.) and incubated at 4° C. for 3-4 hrs. The column was washed with wash buffer (75 mM octyl-beta-D-glucopyranoside and protease inhibitor cocktail in PBS) followed by washing with 0.5 mM control peptide in wash buffer to remove nonspecifically bound proteins. The bound proteins were eluted with 2 mM free CAQK peptide. The eluted factions were pooled, their protein concentration determined by using bicinchoninic acid (BCA) protein assay (Thermo Fischer) and the samples were digested using the Filter-aided Sample Preparation (FASP) method (Wisniewski et al., Nat Methods 6:359-362 (2009)). […] All mass spectra were analyzed with MaxQuant software version 1.5.0.25. […] Empty column denotes protein was not detected.

In test [6] the target is T1, Versican core protein. The description is as above. As to the method:
as §1

T1 sequence (Q62059 24-3357 limits assumed): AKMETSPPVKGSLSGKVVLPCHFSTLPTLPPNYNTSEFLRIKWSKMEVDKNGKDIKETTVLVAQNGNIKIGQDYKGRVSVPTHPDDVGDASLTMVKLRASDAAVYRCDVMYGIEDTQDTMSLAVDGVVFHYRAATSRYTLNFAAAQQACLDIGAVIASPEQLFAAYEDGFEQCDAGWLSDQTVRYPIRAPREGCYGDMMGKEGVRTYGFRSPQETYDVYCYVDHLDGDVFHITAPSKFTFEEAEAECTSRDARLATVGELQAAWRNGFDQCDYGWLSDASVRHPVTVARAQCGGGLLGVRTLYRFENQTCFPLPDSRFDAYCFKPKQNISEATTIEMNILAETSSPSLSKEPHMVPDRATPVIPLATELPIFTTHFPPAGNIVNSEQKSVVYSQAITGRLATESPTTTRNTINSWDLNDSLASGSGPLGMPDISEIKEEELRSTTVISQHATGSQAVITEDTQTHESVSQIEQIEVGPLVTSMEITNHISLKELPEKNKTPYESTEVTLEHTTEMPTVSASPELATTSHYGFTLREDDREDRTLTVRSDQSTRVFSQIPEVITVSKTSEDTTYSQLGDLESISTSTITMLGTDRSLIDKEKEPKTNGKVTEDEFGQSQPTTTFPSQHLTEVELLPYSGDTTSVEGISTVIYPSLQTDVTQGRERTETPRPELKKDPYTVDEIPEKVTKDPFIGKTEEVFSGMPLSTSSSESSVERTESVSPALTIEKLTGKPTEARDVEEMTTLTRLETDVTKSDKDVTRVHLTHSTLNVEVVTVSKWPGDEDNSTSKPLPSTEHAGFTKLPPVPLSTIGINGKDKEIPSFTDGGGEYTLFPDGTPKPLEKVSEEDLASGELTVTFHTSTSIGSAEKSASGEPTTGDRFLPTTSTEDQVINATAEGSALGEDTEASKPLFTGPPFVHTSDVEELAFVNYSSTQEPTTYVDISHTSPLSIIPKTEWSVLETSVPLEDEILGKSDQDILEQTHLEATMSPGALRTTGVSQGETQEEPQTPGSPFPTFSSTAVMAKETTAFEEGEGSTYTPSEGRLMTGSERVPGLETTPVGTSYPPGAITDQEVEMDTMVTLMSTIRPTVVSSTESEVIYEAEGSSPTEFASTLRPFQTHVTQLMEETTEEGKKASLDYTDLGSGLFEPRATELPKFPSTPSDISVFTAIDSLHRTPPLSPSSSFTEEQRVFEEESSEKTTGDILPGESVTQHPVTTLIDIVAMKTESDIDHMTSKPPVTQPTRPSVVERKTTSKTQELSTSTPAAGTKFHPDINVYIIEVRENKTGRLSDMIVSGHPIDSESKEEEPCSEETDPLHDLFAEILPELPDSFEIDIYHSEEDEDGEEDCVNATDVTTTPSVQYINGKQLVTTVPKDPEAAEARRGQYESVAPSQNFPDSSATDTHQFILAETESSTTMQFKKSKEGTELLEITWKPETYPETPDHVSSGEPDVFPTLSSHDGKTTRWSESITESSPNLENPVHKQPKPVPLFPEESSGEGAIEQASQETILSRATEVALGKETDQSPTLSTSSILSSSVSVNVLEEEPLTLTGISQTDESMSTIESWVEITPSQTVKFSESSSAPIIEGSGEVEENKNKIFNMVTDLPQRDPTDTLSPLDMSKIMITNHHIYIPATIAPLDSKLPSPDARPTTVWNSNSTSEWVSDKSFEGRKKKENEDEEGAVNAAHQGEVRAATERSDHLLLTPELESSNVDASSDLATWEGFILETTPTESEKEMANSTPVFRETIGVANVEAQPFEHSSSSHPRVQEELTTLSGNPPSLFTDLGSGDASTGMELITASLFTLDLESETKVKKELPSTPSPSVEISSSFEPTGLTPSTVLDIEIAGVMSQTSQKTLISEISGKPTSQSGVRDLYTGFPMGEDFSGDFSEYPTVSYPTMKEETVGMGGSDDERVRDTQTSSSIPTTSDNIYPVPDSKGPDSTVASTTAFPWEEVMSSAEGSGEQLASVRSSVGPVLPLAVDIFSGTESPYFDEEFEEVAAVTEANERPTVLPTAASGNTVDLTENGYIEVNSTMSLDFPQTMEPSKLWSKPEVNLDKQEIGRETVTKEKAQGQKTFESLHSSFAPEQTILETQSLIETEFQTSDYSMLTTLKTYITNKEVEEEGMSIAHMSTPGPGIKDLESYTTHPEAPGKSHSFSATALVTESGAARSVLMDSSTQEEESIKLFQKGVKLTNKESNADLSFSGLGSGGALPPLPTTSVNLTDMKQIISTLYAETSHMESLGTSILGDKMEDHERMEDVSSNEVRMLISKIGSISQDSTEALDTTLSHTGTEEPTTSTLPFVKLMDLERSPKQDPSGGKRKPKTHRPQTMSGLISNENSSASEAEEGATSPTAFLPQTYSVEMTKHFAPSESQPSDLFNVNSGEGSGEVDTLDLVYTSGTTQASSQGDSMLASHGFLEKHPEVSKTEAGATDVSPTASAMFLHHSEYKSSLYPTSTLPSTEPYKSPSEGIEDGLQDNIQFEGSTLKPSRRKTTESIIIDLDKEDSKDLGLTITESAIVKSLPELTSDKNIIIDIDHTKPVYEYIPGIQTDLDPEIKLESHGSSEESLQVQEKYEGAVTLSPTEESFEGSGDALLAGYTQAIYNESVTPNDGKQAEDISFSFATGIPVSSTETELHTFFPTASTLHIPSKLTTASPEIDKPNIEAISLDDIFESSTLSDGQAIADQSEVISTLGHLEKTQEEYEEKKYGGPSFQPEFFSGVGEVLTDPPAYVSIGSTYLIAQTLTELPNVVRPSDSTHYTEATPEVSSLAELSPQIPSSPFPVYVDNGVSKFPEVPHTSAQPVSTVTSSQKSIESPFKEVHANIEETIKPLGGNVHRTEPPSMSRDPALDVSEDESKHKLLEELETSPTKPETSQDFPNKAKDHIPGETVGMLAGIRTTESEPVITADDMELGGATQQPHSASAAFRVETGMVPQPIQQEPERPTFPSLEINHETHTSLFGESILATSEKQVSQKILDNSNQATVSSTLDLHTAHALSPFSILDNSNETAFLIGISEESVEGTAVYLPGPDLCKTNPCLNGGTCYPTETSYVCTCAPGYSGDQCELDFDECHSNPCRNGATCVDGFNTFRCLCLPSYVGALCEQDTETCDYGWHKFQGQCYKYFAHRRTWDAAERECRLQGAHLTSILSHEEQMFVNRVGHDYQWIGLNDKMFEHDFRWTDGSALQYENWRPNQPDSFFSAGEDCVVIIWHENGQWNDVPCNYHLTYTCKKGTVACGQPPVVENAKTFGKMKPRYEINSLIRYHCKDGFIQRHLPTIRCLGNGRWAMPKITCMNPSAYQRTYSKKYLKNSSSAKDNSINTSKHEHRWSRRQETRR
Tenascin-R (mouse), sequence (Q8BYI9 32-1358 limits assumed): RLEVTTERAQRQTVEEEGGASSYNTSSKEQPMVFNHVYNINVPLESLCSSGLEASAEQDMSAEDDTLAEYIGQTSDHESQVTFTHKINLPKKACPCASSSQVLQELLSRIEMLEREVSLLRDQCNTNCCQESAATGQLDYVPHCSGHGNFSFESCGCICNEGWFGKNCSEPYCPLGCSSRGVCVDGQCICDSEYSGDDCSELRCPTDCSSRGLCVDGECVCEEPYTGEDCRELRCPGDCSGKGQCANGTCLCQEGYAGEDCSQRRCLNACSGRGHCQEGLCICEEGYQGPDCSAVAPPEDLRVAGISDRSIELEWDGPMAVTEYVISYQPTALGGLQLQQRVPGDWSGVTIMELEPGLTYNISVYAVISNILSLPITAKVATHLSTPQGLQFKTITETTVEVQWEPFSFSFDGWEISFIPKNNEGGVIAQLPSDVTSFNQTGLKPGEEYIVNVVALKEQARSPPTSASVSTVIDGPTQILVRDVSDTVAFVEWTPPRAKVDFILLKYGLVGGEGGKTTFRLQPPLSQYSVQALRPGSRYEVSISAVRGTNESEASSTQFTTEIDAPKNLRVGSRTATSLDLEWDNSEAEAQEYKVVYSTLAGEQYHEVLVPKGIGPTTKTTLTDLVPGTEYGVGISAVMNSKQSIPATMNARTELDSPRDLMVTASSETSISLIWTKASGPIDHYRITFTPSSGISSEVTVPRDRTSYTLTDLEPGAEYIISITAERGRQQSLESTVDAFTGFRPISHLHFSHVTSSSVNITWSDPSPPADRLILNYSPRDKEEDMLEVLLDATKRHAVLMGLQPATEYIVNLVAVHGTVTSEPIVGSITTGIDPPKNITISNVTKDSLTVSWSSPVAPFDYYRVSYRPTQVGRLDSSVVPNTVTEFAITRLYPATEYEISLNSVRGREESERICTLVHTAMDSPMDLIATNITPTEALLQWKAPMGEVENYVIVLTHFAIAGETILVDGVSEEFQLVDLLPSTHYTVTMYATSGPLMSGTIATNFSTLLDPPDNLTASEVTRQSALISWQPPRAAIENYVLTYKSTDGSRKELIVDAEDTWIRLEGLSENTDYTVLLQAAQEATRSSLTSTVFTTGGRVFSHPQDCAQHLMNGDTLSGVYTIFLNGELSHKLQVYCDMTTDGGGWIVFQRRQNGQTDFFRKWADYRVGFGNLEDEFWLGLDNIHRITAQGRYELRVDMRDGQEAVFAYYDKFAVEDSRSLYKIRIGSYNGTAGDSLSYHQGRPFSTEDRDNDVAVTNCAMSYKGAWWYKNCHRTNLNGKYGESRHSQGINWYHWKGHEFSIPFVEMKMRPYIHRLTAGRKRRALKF
Hyaluronan and proteoglycan link protein 4 (mouse), sequence (Q80WM4 31-400 limits assumed): as the sequence (Q80WM4 31-400 limits assumed) above

Take CAQK peptide: the Log2 LFQ intensity (log2 LFQ intensity) in test [1] turned out to be 19.8; with Tenascin-R (mouse) [2], 26.7; with Versican core protein [3] it was 26.

The molecule control peptide (CGGK) had a Log2 LFQ intensity (log2 LFQ intensity) with Tenascin-R (mouse) [4] of 24.1.

B1: control peptide (CGGK) (peptide)
peptide: CGGK
modifications: not fully specified (N-terminus, C-terminus)
notes: also called CGGK column
On to B1, for which the binding result (in test [5]; in the test with Versican core protein [6]) was “no binding” in each case.
